Test results: patent publication US6015562, “Targeted forms of methyltrithio antitumor agents” (American Cyanamid Company, dated 2000)
One block for each binder: values may come before it.

What was measured:
[1] = target: T1, polymorphic epithelial mucin (PEM) (human, UniProt P15941); experiment: direct binding ELISA, PEM-coated microwell plates, culture supernatant
[2] = target: T1, polymorphic epithelial mucin (PEM); experiment: order of binding activity from all the direct binding ELISA assays on PEM

- binding result [1]: binds
B1: cLgH2 (chimeric light chain with CDR-grafted heavy chain gH2; plasmids pAL52 and pAL41) (antibody, V domains shown)
VH: QIQLVQSGAEVKKPGSSVKVSCKASGYTFTDYYINWMRQAPGQGLEWIGWIDPGSGNTKYNEKFKGRATLTVDTSTNTAYMELSSLRSEDTAFYFCAREKTTYYYAMDYWGQGTLVTVSS
VL: DIVMTQAAPSVPVTPGESLSISCRSSKSLLHSNGDTFLYWFLQRPGQSPQLLIYRMSNLASGVPDRFSGSGSGTAFTLRVSRVEAEDVGVYYCMQHLEYPFTFGAGTKLELKR

- binding result [2]: binds
B2: gL1cH (CDR-grafted light chain gL1 with chimeric heavy chain; plasmids pAL47 and pHMC33) (antibody, V domains shown)
VH: QIQLQQSGPELVKPGASVKISCKASGYTFTDYYINWMKQKPGQGLEWIGWIDPGSGNTKYNEKFKGKATLTVDTSSSTAYMQLSSLTSEDTAVYFCAREKTTYYYAMDYWGQGTSVTVS
VL: DIQMTQSPSTLSASVGDRVTITCRSSKSLLHSNGDTFLYWFQQKPGKAPKLLMYRMSNLASGVPSRFSGSGSGTEFTLTISSLQPDDFATYYCMQHLEYPFTFGQGTKVEVKR
